{"source": "patent US6548743B1", "about": "“Transgenic plants expressing a dual-specificity MAPK phosphatase and uses thereof” (The General Hospital Corporation, priority 1998, dated 2003)", "key": {"[1]": {"test_system": "tobacco cultivar SR1", "test": "Phenotype of transgenic tobacco SR1 plants expressing the transgene (35S CaMV promoter)", "type": "in vivo", "description": "(§1) Next, we examined the phenotypic modifications of transgenic plants expressing MKP-1 under the control of the 35S CaMV promoter. For these experiments, we introduced the MKP-1 construct into tobacco cultivar SR1 and Arabidopsis plants according to standard Agrobacterium-mediated gene transfer methods. Initiation of flowering in the day-neutral tobacco cultivar SR1 is mainly dependent on the number of leaves found on the plants. These tobacco plants, in general, remain in the vegetative state until approximately twenty leaves have developed. […] Some transformants even initiated flowers after only a few small leaves had developed (FIG. 4). Despite early flowering, these plants were fertile. […] Similar results were obtained when MKP-1 was expressed in Arabidopsis plants."}, "[2]": {"test_system": "tobacco cells", "test": "Auxin effect on division and differentiation of transfected tobacco cells", "type": "cell-based", "method": "To examine the effects of auxin on cell division and differentiation of cells expressing MKP-1 SEQ ID NO.:10; tobacco cells transfected with the MKP-1 transgene expressed under the control of the 35S CaMV promoter were cultured on a medium containing 0.1 μM or 1 μM NAA. […] Since prevention of MAPK activation by MKP-1 can render plant cells less sensitive to auxin, activation of some MAPK pathways may be crucial in auxin stimulated plant cell proliferation."}, "[3]": {"test_system": "Arabidopsis plants", "test": "Phenotype of transgenic Arabidopsis plants expressing the transgene (35S CaMV promoter)", "type": "in vivo", "description": "as §1"}, "[4]": {"test_system": "NPK1-dependent activation of a MAPK and repression of the GH3 promoter", "test": "Transient expression in maize protoplasts: reversal of NPK1 effects", "type": "cell-based", "conditions": "transfected maize protoplasts, 35S CaMV promoter", "description": "A phosphatase domain containing a fragment of the mouse MKP-1 (amino acids 1-314 (SEQ ID NO.: 11); Sun et al., Cell 75: 487-493, 1993) was cloned into the plant expression vector pART7. This expression plasmid was then used for transient expression of MKP-1 in maize protoplasts."}}, "data": [{"molecule": "MKP-1: dual-specificity MAPK phosphatase; fragment of mouse MKP-1 (amino acids 1-314) expressed from a transgene under the 35S CaMV promoter (protein, UniProt P28563 1-314, looked up, fragment) MVMEVGILDAGGLRALLREGAAQCLLLDCRSFFAFNAGHIAGSVNVRFSTIVRRRAKGAMGLEHIVPNAELRGRLLAGAYHAVVLLDERSASLDGAKRDGTLALAAGALCREARSTQVFFLQGGYEAFSASCPELCSKQSTPTGLSLPLSTSVPDSAESGCSSCSTPLYDQGGPVEILSFLYLGSAYHASRKDMLDALGITALINVSANCPNHFEGHYQYKSIPVEDNHKADISSWFNEAIDFIDSIKDAGGRVFVHCQAGISRSATICLAYLMRTNRVKLDEAFEFVKQRRSIISPNFSFMGQLLQFESQVLA", "values": [{"measurement": "number of leaves before flowering compared to wild type", "setting": "[1]; MKP-1 transformed SR1 tobacco, FIG. 2", "value": "about half"}, {"measurement": "fertility", "setting": "[1]; early flowering transformants", "value": "fertile"}, {"measurement": "reduction in the vegetative life span of the plant", "setting": "[1]; in vivo", "value": "~50", "unit": "%"}, {"measurement": "initiation of flowering", "setting": "[1]; primary transgenic SR1 lines vs control plants", "value": "initiated flowering earlier than control plants"}, {"measurement": "flower and seed production", "setting": "[1]; transgenic vs wild-type plants", "value": "more flowers and seeds than the wild-type plants"}, {"measurement": "cell division under low auxin", "setting": "[2]; 0.1 μM NAA", "value": "failed to divide"}, {"measurement": "cell phenotype under high auxin", "setting": "[2]; 1 μM NAA", "value": "remained green and formed tight calli with differentiated shoot primordia"}, {"measurement": "level of auxin required to initiate cell division", "setting": "[2]; constant concentration of cytokinin, compared with cells transfected with vector alone", "value": 1, "unit": "μM NAA"}, {"measurement": "fertility of reproductive organs", "setting": "[3]; in vivo", "value": "fertile"}, {"measurement": "inflorescence initiation", "setting": "[3]; progenies of several Arabidopsis lines", "value": "initiate the inflorescence stem without producing any rosette leaves"}, {"measurement": "effect on NPK1-dependent activation of a MAPK", "setting": "[4]", "value": "complete elimination"}, {"measurement": "effect on repression of the auxin-inducibility of the GH3 promoter by NPK1", "setting": "[4]", "value": "complete elimination"}]}]}
